According to US20230203202A1 (DRAGONFLY THERAPEUTICS, published 2023):

Assays:
[1] = biological target: T1, human 5T4 (SPR and epitope mapping, construct not stated) (human, UniProt Q13641 32-355, limits assumed); assay: SPR, h5T4 binding; sample stressed in Tris pH 9, 7 days 40 °C; heterogeneous binding, approximate value
T1 construct: also called h5T4
T1 sequence (looked up): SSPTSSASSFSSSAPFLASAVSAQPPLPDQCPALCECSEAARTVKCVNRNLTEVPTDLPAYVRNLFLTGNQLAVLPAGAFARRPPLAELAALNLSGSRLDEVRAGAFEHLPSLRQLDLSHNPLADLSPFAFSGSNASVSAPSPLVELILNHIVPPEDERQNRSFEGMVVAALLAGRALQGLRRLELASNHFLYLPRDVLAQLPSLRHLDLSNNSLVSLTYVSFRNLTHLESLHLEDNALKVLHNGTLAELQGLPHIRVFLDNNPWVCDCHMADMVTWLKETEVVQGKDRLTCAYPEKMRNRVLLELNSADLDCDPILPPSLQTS

[2] = biological target: T1, human 5T4 (SPR and epitope mapping, …); assay: SPR, h5T4 binding; sample oxidised in PBS 0.02% H2O2, 24 hrs RT
[3] = biological target: T2, human 5T4 on the cell surface (human, UniProt Q13641 32-420); assay: cell-based or functional assay
T2 sequence (looked up): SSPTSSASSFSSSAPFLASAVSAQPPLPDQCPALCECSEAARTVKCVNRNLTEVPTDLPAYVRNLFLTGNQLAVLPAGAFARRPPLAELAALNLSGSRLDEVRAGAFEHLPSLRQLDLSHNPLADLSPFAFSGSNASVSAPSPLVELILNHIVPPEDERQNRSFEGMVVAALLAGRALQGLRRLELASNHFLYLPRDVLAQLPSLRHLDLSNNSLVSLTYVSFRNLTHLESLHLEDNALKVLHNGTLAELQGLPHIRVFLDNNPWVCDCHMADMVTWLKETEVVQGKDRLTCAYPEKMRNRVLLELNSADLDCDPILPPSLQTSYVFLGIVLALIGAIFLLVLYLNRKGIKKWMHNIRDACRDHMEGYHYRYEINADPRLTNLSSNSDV

[4] = biological target: T2, human 5T4 on the cell surface; assay: flow cytometry on HCT116 cells (14,000 5T4 per cell)
[5] = biological target: T2, human 5T4 on the cell surface; assay: flow cytometry on Detroit 562 cells (21,000 5T4 per cell)
[6] = biological target: T1, human 5T4 (SPR and epitope mapping, …); assay: SPR, Biacore 8K, 37 °C, TriNKET captured on anti-hFc chip, pH 7.4
Description: (§1) Briefly, SPR was performed using a Biacore 8K instrument at physiological temperature of 37° C. Briefly, human Fc specific antibodies were covalently immobilized at a density of about 8000-10000 resonance units (RU) on carboxy methyl dextran matrix of a CM5 biosensor chip to create an anti-hFc IgG chip. Samples were injected on the anti-hFc IgG chip at a flow rate of 10 μL/min for 60 seconds. Protein was serially diluted (300 nM-0.14 nM) in three-fold dilutions with running buffer and injected at a flow rate of 30 μl/min over the captured test articles. Association was monitored for 240-300 seconds, and dissociation was monitored for 300-900 seconds. Surfaces were regenerated between cycles with three pulses of 10 mM glycine-HCl (pH 1.7) injected for 20 seconds at 100 μL/min.

[7] = biological target: T1, human 5T4 (SPR and epitope mapping, …); assay: SPR, h5T4 binding; control sample, HST pH 6, 7 days 4 °C
[8] = biological target: T2, human 5T4 on the cell surface; assay: flow cytometry on HCC4006 cells (53,000 5T4 per cell)
[9] = biological target: T2, human 5T4 on the cell surface; assay: flow cytometry on H292 cells (11,000 5T4/cell), fold over background
Description: (§2) The KYSE-30 and H292 human cancer cell lines, derived from esophageal squamous cell carcinoma and non-small cell lung carcinoma, respectively, were used. […] After incubation, binding patterns of the TriNKET® and mAb to 5T4+ cells were detected using a fluorophore conjugated anti-human IgG secondary antibody. Cells were analyzed by flow cytometry and fold MFI over secondary-only controls reported.

[10] = biological target: T2, human 5T4 on the cell surface; assay: cell binding assay on 5T4-expressing tumor cells (cell line not given)
[11] = biological target: T2, human 5T4 on the cell surface; assay: flow cytometry on KYSE-30 cells (61,000 5T4/cell), fold over background
Description: as §2

[12] = biological target: T2, human 5T4 on the cell surface; assay: flow cytometry on KYSE-30 cells (61,000 5T4 per cell)
[13] = biological target: T2, human 5T4 on the cell surface; assay: flow cytometry on BT474 cells (20,000 5T4 per cell)
[14] = biological target: T1, human 5T4 (SPR and epitope mapping, …); assay: SPR
Description: as §1

[15] = biological target: T3, human NKG2D on CD8+ T cells (human, UniProt P26718 1-216); assay: cell-based or functional assay
T3 sequence (looked up): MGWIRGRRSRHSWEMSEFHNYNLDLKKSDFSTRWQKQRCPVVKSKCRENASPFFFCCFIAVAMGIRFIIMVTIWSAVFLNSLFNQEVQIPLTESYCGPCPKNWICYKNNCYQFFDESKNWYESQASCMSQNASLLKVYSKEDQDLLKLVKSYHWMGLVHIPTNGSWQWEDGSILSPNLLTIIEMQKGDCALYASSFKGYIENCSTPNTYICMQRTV

Kd [1]: ~15.1 nM | Kd [2]: 7 nM | koff [2]: 0.00086 s⁻¹ | kon [2]: 120000 M⁻¹ s⁻¹ | ADCP of KYSE-30 cells by M0 macrophages, EC50 [3]: 0.089 nM | ADCP of NCI-H292 cells by M0 macrophages, EC50 [3]: 0.15 nM | EC50 [4]: 2.1 nM | EC50 [5]: 2.7 nM | Kd [6]: 6.1 nM | koff [6]: 0.00077 s⁻¹ | kon [6]: 130000 M⁻¹ s⁻¹ | Kd [7]: 7.8 nM | koff [7]: 0.00091 s⁻¹ | kon [7]: 120000 M⁻¹ s⁻¹ | EC50 [8]: 7.6 nM | EC50 (read off the curve) [9]: ~3 nM | EC50 [10]: 5.33 nM | Max Fold Over Background (FOB) [10]: 85 fold over background | EC50 (read off the curve) [11]: ~2 nM | EC50 [12]: 2.5 nM | EC50 [13]: 3.7 nM | Kd [14]: 6.2 nM | CD8+ T-cell lysis of BT-474 cells (Incucyte, 72 h), EC50 [15]: 0.66 nM | CD8+ T-cell lysis of FaDu cells (Incucyte, 72 h), EC50 [15]: 0.59 nM
B1: AB1310/AB1783-TriNKET® (bispecific antibody, human IgG1, kappa)
chain: DIQLTQSPSSLSASVGDRVTITCRASQSVTTSNYNYMHWFQQKPGKAPKLLIKFASNLESGVPSRFSGSGSGTDFTLTISSLQPEDFATYYCQHSWEIPWTFGCGTKVEIKGGGGSGGGGSGGGGSGGGGSEVQLVESGGGLVKPGGSLRLSCAASRFTFSDFGMHWVRQAPGKCLEWVSYISSGSSTIYYADSVKGRFTISRDNAKNSLYLQMNSLRAEDTAVYYCASSQSYYRGTLDYWGQGTTVTVSSASDKTHTCPPCPAPELLGGPSVFLFPPKPKDTLMISRTPEVTCVVVDVSHEDPEVKFNWYVDGVEVHNAKTKPREEQYNSTYRVVSVLTVLHQDWLNGKEYKCKVSNKALPAPIEKTISKAKGQPREPRVYTLPPCRDELTKNQVSLTCLVKGFYPSDIAVEWESNGQPENNYKTTPPVLVSDGSFTLYSKLTVDKSRWQQGNVFSCSVMHEALHNHYTQKSLSLSPG
heavy: EVQLVESGGGLVKPGGSLRLSCAASGFTFSSYSMNWVRQAPGKGLEWVSSISSSSSYIYYADSVKGRFTISRDNAKNSLYLQMNSLRAEDTAVYYCARGAPIGAAAGWFDPWGQGTLVTVSSASTKGPSVFPLAPSSKSTSGGTAALGCLVKDYFPEPVTVSWNSGALTSGVHTFPAVLQSSGLYSLSSVVTVPSSSLGTQTYICNVNHKPSNTKVDKKVEPKSCDKTHTCPPCPAPELLGGPSVFLFPPKPKDTLMISRTPEVTCVVVDVSHEDPEVKFNWYVDGVEVHNAKTKPREEQYNSTYRVVSVLTVLHQDWLNGKEYKCKVSNKALPAPIEKTISKAKGQPREPQVCTLPPSRDELTENQVSLTCLVKGFYPSDIAVEWESNGQPENNYKTTPPVLDSDGSFFLYSWLTVDKSRWQQGNVFSCSVMHEALHNHYTQKSLSLSPG
light: DIQMTQSPSSVSASVGDRVTITCRASQGISSWLAWYQQKPGKAPKLLIYAASSLQSGVPSRFSGSGSGTDFTLTISSLQPEDFATYYCQQGVSFPRTFGGGTKVEIKRTVAAPSVFIFPPSDEQLKSGTASVVCLLNNFYPREAKVQWKVDNALQSGNSQESVTEQDSKDSTYSLSSTLTLSKADYEKHKVYACEVTHQGLSSPVTKSFNRGEC
notes: also called AB1310-TriNKET®; AB1783 10F10 F3′ LH H(T62S) CHO opt
